Data on one substance can be found in US7378087.

Assay [1] deals with H-2K^b MHC class I molecule (mouse) (UniProt P01901). Nature of the assay: FACS on RMA-S cells; IFN +, peptide +, hβ2m -.
For assay [2] the target is unchanged. Briefly: FACS on RMA cells; IFN -, peptide +, hβ2m +.
Assay [3] shares this target. Nature of the assay: FACS on RMA cells; IFN -, peptide -, hβ2m -.
For assay [4] the target is unchanged. Nature of the assay: FACS on RMA-S cells; IFN -, peptide -, hβ2m -.
For assay [5] the target is unchanged. Briefly: FACS on CMT.64 cells; IFN -, peptide +, hβ2m +.
The target is the same in assay [6]. Briefly: FACS on RMA-S cells; IFN +, peptide -, hβ2m -.
Assay [7] shares this target. Briefly: FACS on RMA-S cells; IFN +, peptide +, hβ2m +.
Assay [8] has the same target. Briefly: FACS on CMT.64 cells; IFN -, peptide -, hβ2m -.
The target is the same in assay [9]. Nature of the assay: FACS on RMA cells; IFN +, peptide -, hβ2m +.
For assay [10] the target is unchanged. Nature of the assay: FACS on RMA-S cells; IFN -, peptide +, hβ2m +.
Assay [11] shares this target. Briefly: FACS on CMT.64 cells; IFN * (so in the source), peptide +, hβ2m +.
Assay [12] has the same target. Briefly: FACS on RMA cells; IFN +, peptide +, hβ2m +.
For assay [13] the target is unchanged. Nature of the assay: FACS on CMT.64 cells; IFN +, peptide -, hβ2m -.
Assay [14] shares this target. Nature of the assay: FACS on RMA-S cells; IFN +, peptide -, hβ2m +.
The target is the same in assay [15]. Briefly: FACS on RMA cells; IFN +, peptide +, hβ2m -.
For assay [16] the target is unchanged. Briefly: FACS on RMA cells; IFN +, peptide -, hβ2m -.

Chain of UniProt P01901 (P01901 22-305 limits assumed): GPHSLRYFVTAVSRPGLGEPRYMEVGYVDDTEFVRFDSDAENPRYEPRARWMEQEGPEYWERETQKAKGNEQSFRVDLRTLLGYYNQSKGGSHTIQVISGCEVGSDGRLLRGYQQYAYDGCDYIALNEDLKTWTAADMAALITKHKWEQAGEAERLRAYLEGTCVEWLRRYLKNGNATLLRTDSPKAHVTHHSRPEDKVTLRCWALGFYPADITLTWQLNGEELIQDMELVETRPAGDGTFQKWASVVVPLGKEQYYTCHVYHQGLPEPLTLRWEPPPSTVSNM

With “142-23.3 anti H-2 K^b monoclonal antibody”, the fluorescence units (arbitrary fluorescence units) was found to be 10 in assay [1]; 242 in assay [2]; 164 in [3]; 12 in assay [4]; 8 in [5]; 12 in assay [6]. The fluorescence units (arbitrary fluorescence units) in assay [7] worked out at 41; in assay [8], 5; in [9], 438; in [10] it was 70; in assay [11] it was 35; in [12], 780. Further, the fluorescence units (arbitrary fluorescence units) in [13] was found to be 26; in assay [14], 10; in assay [15], 606; in assay [16], 346.
